Reference: the supplement of paper PMC7877785
± gives the uncertainty stated by the source.

Assay: self-splicing fitness, log relative to wild type (ln ratio); higher = more splicing; Tetrahymena group I intron in knt gene, E. coli kanamycin selection, DiMSum; sequences stand for … in CUCUCU…GGAGGGAAAAGUUAUCAGGCAUGCACCUGGUAGCUAGUCUUUAAACCAAUAGAUUGCAUCGGUUUAAAAGGCAAGACCGUCAAAUUGCGGGAAAGGGGUCAACAGCCGUUCAGUACCAAGUCUCAGGGGAAACUUUGAGAUGGCCUUGCAAAGGGUAUGGUAAUAAGCUGACGGACAUGGUCCUAACCACGCAGCCAAGUCCUAAGUCAACAGAUCUUCUGUUGAUAUGGAUGCAGUUCACAGACUAAAUGUCGGUCGGGGAAGAUGUAUUCUUCUCAUAAGAUAUAGUCGGACCUCUCCUUAAUGGGAGCUAGCGGAUGAAGUGAUGCAACACUGGAGCCGCUGGGAACUAAUUUGUAUGCGAAAGUAUAUUGAUUAGUUUUGGAGUACUCGUGGUCG
In short: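 Fitness was computed with DiMSum as the error-weighted combination of replicate fold changes, kanamycin versus none, each normalised to wild type. The library randomised all eight intron nucleotides of the P1ex region, with the intron placed in the knt kanamycin-resistance gene on pET-22b(+) in E. coli BL21(DE3). Six replicate transformations were grown overnight at 37°C or 30°C on LB agar with or without 25 μg/mL kanamycin, plus 100 μg/mL carbenicillin, 50 μM IPTG and 0.2% rhamnose. Pooled colonies were amplicon-sequenced on an Illumina HiSeq 2500.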

Sequence | self-splicing fitness (ln) (30 °C) | self-splicing fitness (ln) (37 °C)
GAAAAGCAAUAUUACGAAGA | -2.88 ± 0.18 | -1.34 ± 0.13
UUGGAGCAAUAUUACGUUCU |  | -3.09 ± 0.27
UUCUAGCAAUAUUACGUGAC | -3.69 ± 0.31 | -1.61 ± 0.24
UCGAAGCAAUAUUACGUGGC |  | -2.78 ± 0.23
GUUCAGCAAUAUUACGCCUC | -0.427 ± 0.14 | 0.0352 ± 0.16
CAAGAGCAAUAUUACGAUGG | -1.1 ± 0.091 | -0.943 ± 0.077
CCAGAGCAAUAUUACGGCAG | -1.8 ± 0.088 | -1 ± 0.13
CGGGAGCAAUAUUACGUUCC | -2.75 ± 0.31 | 
AUCGAGCAAUAUUACGCGUA | -1.93 ± 0.17 | -1.01 ± 0.14
ACGCAGCAAUAUUACGUCAG | -2.75 ± 0.12 | -3 ± 0.19
UUCAAGCAAUAUUACGUAUG | -3.21 ± 0.22 | -1.64 ± 0.17
GGGCAGCAAUAUUACGGAAG | -3.03 ± 0.23 | -1.02 ± 0.17
UCGCAGCAAUAUUACGCUGC | -2.62 ± 0.49 | -0.264 ± 0.26
UAAGAGCAAUAUUACGUAUA | -2.64 ± 0.26 | -1.97 ± 0.25
CUGUAGCAAUAUUACGCGGG | -3.04 ± 0.24 | -2.07 ± 0.31
ACCCAGCAAUAUUACGCCAC | -4.62 ± 0.42 | -1.82 ± 0.31
CAAAAGCAAUAUUACGAGCG | -0.129 ± 0.077 | 0.342 ± 0.097
CCUCAGCAAUAUUACGGACG | -0.587 ± 0.064 | 0.272 ± 0.081
UGCGAGCAAUAUUACGGGGC | -3.09 ± 0.27 | 
UUAAAGCAAUAUUACGUAAC | -2.67 ± 0.17 | -1.62 ± 0.2
GCCCAGCAAUAUUACGGCGC | -3.02 ± 0.17 | -1.87 ± 0.16
UAGGAGCAAUAUUACGAAUC |  | -2.02 ± 0.26
UGAGAGCAAUAUUACGUUCU | -3.3 ± 0.25 | -2.03 ± 0.27
GAAAAGCAAUAUUACGUGGG | -3.69 ± 0.13 | -1.29 ± 0.11
UCAUAGCAAUAUUACGUUCC |  | -1.99 ± 0.29
GGGCAGCAAUAUUACGAGUG | -3.47 ± 0.24 | -1.64 ± 0.13

Sequence | self-splicing fitness (ln) (30 °C) | self-splicing fitness (ln) (37 °C)
CCAAAGCAAUAUUACGCGCA | -3.48 ± 0.28 | -3.13 ± 0.24
UAGUAGCAAUAUUACGAGAC |  | -1.37 ± 0.39
CCUAAGCAAUAUUACGAAUC | -0.765 ± 0.2 | 
GCGGAGCAAUAUUACGAAGC | -2.45 ± 0.23 | -2.13 ± 0.4
GCCUAGCAAUAUUACGAGGU | -3.07 ± 0.18 | -2.9 ± 0.23
GCACAGCAAUAUUACGGGGG | -1.97 ± 0.088 | -0.472 ± 0.08
ACUCAGCAAUAUUACGCUCU | -0.15 ± 0.067 | 0.559 ± 0.094
ACGCAGCAAUAUUACGCGUC | -4.42 ± 0.17 | -2.18 ± 0.14
UCGUAGCAAUAUUACGGCUU | -2.85 ± 0.46 | -1.64 ± 0.33
UACUAGCAAUAUUACGGAAA | -2.64 ± 0.22 | -1.27 ± 0.18
UGAAAGCAAUAUUACGUCUA | -0.288 ± 0.12 | 0.146 ± 0.11
ACUCAGCAAUAUUACGUGUU | -3.14 ± 0.1 | -1.28 ± 0.088
AGGGAGCAAUAUUACGGGUC | -4.05 ± 0.3 | -3.12 ± 0.22
UCACAGCAAUAUUACGGUGU | -2.41 ± 0.17 | -2.23 ± 0.14
UUAGAGCAAUAUUACGUGCG | -1.28 ± 0.1 | -0.87 ± 0.14
GGAUAGCAAUAUUACGGUCA | -0.171 ± 0.081 | -0.0595 ± 0.11
GUCCAGCAAUAUUACGAUCA | -0.611 ± 0.12 | -0.93 ± 0.13
UACAAGCAAUAUUACGGAAG | -4.3 ± 0.46 | -2.46 ± 0.34
GUCAAGCAAUAUUACGAACG | -2.06 ± 0.15 | -1.27 ± 0.15
AAUAAGCAAUAUUACGGGGG | -2.91 ± 0.19 | -2.75 ± 0.21
UGUGAGCAAUAUUACGAUGU | -3.05 ± 0.18 | -2.08 ± 0.24
CAGAAGCAAUAUUACGAUGG | -0.534 ± 0.064 | -0.254 ± 0.078
GCUCAGCAAUAUUACGCCAA | -1.52 ± 0.42 | 
AGGGAGCAAUAUUACGCGGA | -2.2 ± 0.21 | -2.68 ± 0.3
AUGCAGCAAUAUUACGUGUA | -2.34 ± 0.11 | -0.835 ± 0.091
